Measured values: publication PMC10082178

Key:
[1] = biological target: N-terminal eGFP-tagged human CLEC-2 (CLEC-2-eGFP) (human) (UniProt Q9P126)
[2] = biological target: integrin αIIbβ3 (human (endogenous in platelets)) (UniProt P05106); experiment: native gel or EMSA; SMA-PAGE: whole cell SMALPs of resting human platelets (2.5% SMA, NaCl to 500 mM) on native Tris-Glycine gels, western blot with anti-αIIb or anti-CLEC-2 AYP2

UniProt Q9P126, sequence (Q9P126 whole entry): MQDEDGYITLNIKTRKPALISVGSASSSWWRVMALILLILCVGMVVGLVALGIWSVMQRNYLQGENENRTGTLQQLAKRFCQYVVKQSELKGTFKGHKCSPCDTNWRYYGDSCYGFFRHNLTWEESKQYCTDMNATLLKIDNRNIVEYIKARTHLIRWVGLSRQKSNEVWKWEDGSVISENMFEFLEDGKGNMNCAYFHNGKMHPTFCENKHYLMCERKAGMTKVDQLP

Row | stoichiometry N [2] | Substance | NFAT-luciferase response to rhodocytin (30 nM) in low-expressing CLEC-2-eGFP (100 ng) DT40 cells: percent blocked by LUAS-2 (3 μM, 30 min before rhodocytin) [1]
1 |  | rhodocytin (complex) | 50%
2 | 2 | integrin αIIbβ3 (from UniProt P05106 27-788) (complex) | 
